# Test results reported in article PMC11591715 (2024).
# B1: IL-2 receptor β subunit (IL-2Rβ) (receptor)
# chain: AVNGTSQFTCFYNSRANISCVWSQDGALQDTSCQVHAWPDRRRWNQTCELLPVSQASWACNLILGAPDSQKLTTVDIVTLRVLCREGVRWRVMAIQDFKPFENLRLMAPISLQVVHVETHRCNISWEISQASHYFERHLEFEARTLSPGHTWEEAPLLTLKQKQEWICLETLTPDTQYEFQVRVKPLQGEFTTWSPWSQPLAFRTKPAALGKDTIPWLGHLLVGLSGAFGFIILVYLLINCRNTGPWLKKVLKCNTPDPSKFFSQLSSEHGGDVQKWLSSPFPSSSFSPGGLAPEISPLEVLERDKVTQLLLQQDKVPEPASLSSNHSLTSCFTNQGYFFFHLPDALEIEACQVYFTYDPYSEEDPDEGVAGAPTGSSPQPLQPLSGEDDAYCTFPSRDDLLLFSPSLLGGPSPPSTAPGGSGAGEERMPPSLQERVPRDWDPQPLGPPTPGVPDLVDFQPPPELVLREAGEEVPDAGPREGVSFPWSRPPGQGEFRALNARLPLNTDAYLSLQELQGQDPTHLV
# modifications: biotin (biotinylated antigen)
# Legend:
# Assay in all cases: BLI
# [1] = target: T1, m801.3 (anti-EpCAM-IL-2v immunocytokine, 1 anti-EpCAM Fab + 1 IL-2v, IL-2v fused at the N-terminus of the Fc … ( | human, UniProt P60568 21-153, F42A | Y45A | L72G))
# [2] = target: T1, m801.3 (anti-EpCAM-IL-2v …); remark: listed apart in the source
# [3] = target: m801.2 (anti-EpCAM-IL-2v immunocytokine, 2 anti-EpCAM Fab + 1 IL-2v, IL-2v fused at the C-terminus of IgG1 Fc) (human | , UniProt P60568 21-153, F42A | Y45A | L72G)
binder,measurement,setting,value
B1,Kd,[1],55.6 nM
same,koff,[2],0.00784 s⁻¹
same,koff,[3],0.00412 s⁻¹
